Tests used:
[1] = target: COP9-Signalosome (CSN), wild type (human) (UniProt Q13098)
[2] = target: Cul1^d-N8/Rbx1^∆RING (human) (UniProt Q13616)
DDB1 = assay: anti-Flag immunoprecipitation, SILAC mass spectrometry; conditions: HEK293T; mutant in light medium, wild type in heavy medium; read off a plot
SKP1 = assay: as above; conditions: HEK293T; mutant in light medium, wild type in heavy medium; read off a plot
CUL2 = assay: as above; conditions: HEK293T; mutant in light medium, wild type in heavy medium; read off a plot
RBX1 = assay: as above; conditions: HEK293T; mutant in light medium, wild type in heavy medium; read off a plot
CUL4B = assay: as above; conditions: HEK293T; mutant in light medium, wild type in heavy medium; read off a plot
CUL1 = assay: as above; conditions: HEK293T; mutant in light medium, wild type in heavy medium; read off a plot
Elongin B = assay: as above; conditions: HEK293T; mutant in light medium, wild type in heavy medium; read off a plot
CUL3 = assay: as above; conditions: HEK293T; mutant in light medium, wild type in heavy medium; read off a plot
Elongin C = assay: as above; conditions: HEK293T; mutant in light medium, wild type in heavy medium; read off a plot
CUL4A = assay: as above; conditions: HEK293T; mutant in light medium, wild type in heavy medium; read off a plot
[3] = target: Cul1^d-N8/Rbx1^∆RING (human) (UniProt Q13616); remark: listed apart in the source

Sequence of unlabeled Cul1/Rbx1 (Q13616 whole entry): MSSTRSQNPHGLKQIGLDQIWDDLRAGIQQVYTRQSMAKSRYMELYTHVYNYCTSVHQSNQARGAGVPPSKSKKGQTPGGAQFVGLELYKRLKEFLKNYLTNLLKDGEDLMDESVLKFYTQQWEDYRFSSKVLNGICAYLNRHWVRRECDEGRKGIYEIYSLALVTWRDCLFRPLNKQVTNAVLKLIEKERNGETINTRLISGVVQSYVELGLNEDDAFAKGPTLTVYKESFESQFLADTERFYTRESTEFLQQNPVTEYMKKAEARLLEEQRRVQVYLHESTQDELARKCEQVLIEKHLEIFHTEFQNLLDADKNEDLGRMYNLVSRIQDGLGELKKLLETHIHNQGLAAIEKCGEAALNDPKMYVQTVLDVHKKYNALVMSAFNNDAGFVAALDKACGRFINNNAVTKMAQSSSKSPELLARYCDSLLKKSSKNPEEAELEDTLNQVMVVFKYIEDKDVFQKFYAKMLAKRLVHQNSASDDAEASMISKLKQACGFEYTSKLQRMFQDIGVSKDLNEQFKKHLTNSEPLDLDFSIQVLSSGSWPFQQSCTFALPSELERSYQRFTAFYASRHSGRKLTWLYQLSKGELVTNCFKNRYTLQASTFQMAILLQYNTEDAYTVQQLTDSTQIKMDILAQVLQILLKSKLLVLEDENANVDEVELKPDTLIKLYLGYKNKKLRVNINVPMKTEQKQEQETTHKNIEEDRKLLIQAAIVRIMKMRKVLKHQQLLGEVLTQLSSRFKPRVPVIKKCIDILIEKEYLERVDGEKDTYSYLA
Sequence of unlabeled Cul1/Rbx1 (P62877 whole entry): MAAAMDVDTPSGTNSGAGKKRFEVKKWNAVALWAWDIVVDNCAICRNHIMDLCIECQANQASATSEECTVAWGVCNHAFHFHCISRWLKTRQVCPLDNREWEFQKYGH

Substance: unlabeled Cul1/Rbx1 (from UniProt Q13616 1-776; P62877 1-108) (complex)
- IC50 [1]: 390 nM

Substance: COP9-Signalosome (CSN), wild type (from UniProt Q13098 1-491; P61201 1-443; Q9UNS2 1-423; Q9BT78 1-406; Q92905 1-334; Q7L5N1 1-327; Q9H9Q2 1-264; Q99627 1-209) (complex)
- KM of deneddylation of Cul1-N8/Rbx1^∆RING (with the sortase sequence, not dansylated) by CSN [2]: 5 nM

Substance: Flag-tagged wild type Csn5 (from UniProt Q92905) T103I
- ratio to parent (DDB1): 0.78
- ratio to parent (SKP1): 0.88
- ratio to parent (CUL2): 0.83
- ratio to parent (RBX1): 0.92
- ratio to parent (CUL4B): 0.63
- ratio to parent (CUL1): 0.9
- ratio to parent (Elongin B): 0.85
- ratio to parent (CUL3): 0.75
- ratio to parent (Elongin C): 0.8
- ratio to parent (CUL4A): 0.57

Substance: CSN^5E76A (from UniProt Q13098 1-491; P61201 1-443; Q9UNS2 1-423; Q9BT78 1-406; Q92905 1-334; Q7L5N1 1-327; Q9H9Q2 1-264; Q99627 1-209) (complex)
- Kd [3]: 13 nM
